Measured values as given in US20110045002A1 (BRIGHAM AND WOMEN S HOSPITAL, published 2011).

Tests used:
[1] = molecular target: T1, Tim-2 on CHO-Tim-2 transfectants (mouse, UniProt Q8R183 22-305); experiment: flow cytometry, cell surface staining of CHO transfectants
T1 sequence: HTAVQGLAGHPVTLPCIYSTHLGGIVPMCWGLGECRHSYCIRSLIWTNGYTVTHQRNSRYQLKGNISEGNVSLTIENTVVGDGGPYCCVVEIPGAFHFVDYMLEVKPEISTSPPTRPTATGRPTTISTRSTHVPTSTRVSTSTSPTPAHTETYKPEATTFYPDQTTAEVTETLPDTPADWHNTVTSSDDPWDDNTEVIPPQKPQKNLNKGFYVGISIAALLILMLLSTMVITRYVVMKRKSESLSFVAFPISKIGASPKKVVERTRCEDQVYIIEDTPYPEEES

[2] = molecular target: T2, Tim-3 on CHO-Tim-3 transfectants (UniProt Q8VIM0 20-281, limits assumed); experiment: as above
T2 construct: whole, on cells

[3] = molecular target: T3, Tim-4 on CHO or HEK293 transfectants (Tim-4-pDisplay construct, N-terminal HA tag, Tim-4 signal sequence … (mouse, UniProt Q6U7R4 30-343)); experiment: as above
T3 construct: also called Tim-4 transfectants; CHO-Tim-4; not shown: N-terminal HA tag of the pDisplay vector
T3 sequence: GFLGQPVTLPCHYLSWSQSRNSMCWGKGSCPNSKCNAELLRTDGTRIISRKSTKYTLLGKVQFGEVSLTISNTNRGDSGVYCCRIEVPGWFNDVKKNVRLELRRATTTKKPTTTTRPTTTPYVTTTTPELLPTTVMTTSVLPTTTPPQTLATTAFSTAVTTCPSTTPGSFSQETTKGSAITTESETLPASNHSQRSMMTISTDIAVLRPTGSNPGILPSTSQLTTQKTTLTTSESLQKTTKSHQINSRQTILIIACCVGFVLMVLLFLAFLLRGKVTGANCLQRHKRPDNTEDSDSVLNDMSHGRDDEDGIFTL

[4] = molecular target: T4, Tim-1 on CHO-Tim-1 transfectants (CHO-K1 cells transfected with pEF6 containing murine Tim-1 cDNA) (murine, UniProt Q5QNS5 22-305); experiment: as above
T4 sequence: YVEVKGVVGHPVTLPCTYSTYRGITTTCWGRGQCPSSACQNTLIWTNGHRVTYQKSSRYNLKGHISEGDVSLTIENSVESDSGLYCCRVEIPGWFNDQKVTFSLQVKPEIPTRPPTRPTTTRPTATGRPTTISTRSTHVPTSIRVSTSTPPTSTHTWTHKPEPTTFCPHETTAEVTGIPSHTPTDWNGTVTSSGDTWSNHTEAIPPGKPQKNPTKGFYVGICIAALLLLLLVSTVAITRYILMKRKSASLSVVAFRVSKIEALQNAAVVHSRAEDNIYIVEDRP

[5] = molecular target: T3, Tim-4 on CHO or HEK293 transfectants …; experiment: flow cytometry, cell surface staining of CHO transfectants (FIG. 14A)

T2 sequence (Q8VIM0 20-281 limits assumed): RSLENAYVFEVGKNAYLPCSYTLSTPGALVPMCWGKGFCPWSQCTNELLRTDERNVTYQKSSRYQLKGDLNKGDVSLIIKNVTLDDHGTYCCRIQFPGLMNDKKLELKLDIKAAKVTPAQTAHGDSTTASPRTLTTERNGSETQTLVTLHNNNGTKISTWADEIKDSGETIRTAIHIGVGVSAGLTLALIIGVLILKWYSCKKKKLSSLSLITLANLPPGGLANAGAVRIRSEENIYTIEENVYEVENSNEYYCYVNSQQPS

| Binder | binding result [1] | binding result [2] | binding result [3] | binding result [4] | binding result [5] |
| --- | --- | --- | --- | --- | --- |
| Tim-4-Ig (soluble Ig fusion polypeptide: extracellular IgV and mucin domains of Tim-4 fused to a human IgG1 Fc tail) (Fc fusion, Made by Chimerigen; also called tim-4:Ig fusion; not shown: human IgG1 Fc tail) FLGQPVTLPCHYLSWSQSRNSMCWGKGSCPNSKCNAELLRTDGTRIISRKSTKYTLLGKVQFGEVSLTISNTNRGDSGVYCCRIEVPGWFNDVKKNVRLELRRATTTKKPTTTTRPTTTPYVTTTTPELLPTTVMTTSVLPTTTPPQTLATTAFSTAVTTCPSTTPGSFSQETTKGSAITTESETLPASNHSQRSMMTISTDIAVLRPTGSNPGILPSTSQLTTQKTTLTTSESLQKTTKSHQINSRQTIL | no binding | no binding | no binding | – | – |
| Tim-1-Ig, full-length (Tim-1 extracellular IgV and mucin domains fused to human IgG1 Fc tail) (Fc fusion, Only the extracellular IgV and mucin part stood in the assay; also called Tim1/Fc; full-length Tim-1-Ig; not shown: human IgG1 Fc tail) YVEVKGVVGHPVTLPCTYSTYRGITTTCWGRGQCPSSACQNTLIWTNGHRVTYQKSSRYNLKGHISEGDVSLTIENSVESDSGLYCCRVEIPGWFNDQKVTFSLQVKPEIPTRPPTRPTTTRPTATGRPTTISTRSTHVPTSIRVSTSTPPTSTHTWTHKPEPTTFCPHETTAEVTGIPSHTPTDWNGTVTSSGDTWSNHTEAIPPGKPQKNPTKG | no binding | no binding | – | no binding | binds |
| Tim-2-Ig (Tim-2 extracellular IgV and mucin domains fused to human IgG1 Fc tail) (Fc fusion, Only the extracellular IgV and mucin part stood in the assay; also called Tim2/Fc; not shown: human IgG1 Fc tail) HTAVQGLAGHPVTLPCIYSTHLGGIVPMCWGLGECRHSYCIRSLIWTNGYTVTHQRNSRYQLKGNISEGNVSLTIENTVVGDGGPYCCVVEIPGAFHFVDYMLEVKPEISTSPPTRPTATGRPTTISTRSTHVPTSTRVSTSTSPTPAHTETYKPEATTFYPDQTTAEVTETLPDTPADWHNTVTSSDDPWDDNTEVIPPQKPQKNLNKG | no binding | no binding | no binding | no binding | – |
| Tim-1-Ig containing only the Tim-1 IgV domain (Fc fusion, also called Tim-1-Ig (IgV only); Tim-1-Ig fusion polypeptide (containing only the Tim-1 IgV domain); not shown: Ig Fc tail) SYVEVKGVVGHPVTLPCTYSTYRGITTTCWGRGQCPSSACQNTLIWTNGHRVTYQKSSRYNLKGHISEGDVSLTIENSVESDSGLYCCRVEIPGWFNDQKVTFSLQVKP | – | – | – | – | binds |
